This note sets out measurements from the supplement of paper PMC5998384.

The test system of data set [1] is HeLa Kyoto. As to the kind of experiment: solubility change mitosis vs G1/S (difference of NP-40 vs SDS log2 ratios) (log2 ratio difference); higher = more soluble in mitosis.
Data set [2] has as its system HeLa Kyoto. Kind of data set: solubility in G1/S (NP-40 vs SDS abundance) (log2 ratio); higher = more soluble. The settings on record: cell cycle stage: G1/S.
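Throughout, for solubility change mitosis vs G1/S (difference of NP-40 vs SDS log2 ratios): synchronized HeLa Kyoto cells (double thymidine block for G1/S, nocodazole release for mitosis), protein amounts in NP-40 versus SDS lysates quantified by mass spectrometry, three biological replicates.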
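Throughout, for solubility in G1/S (NP-40 vs SDS abundance): HeLa Kyoto cells arrested at G1/S by double thymidine block, proteins quantified by TMT10plex mass spectrometry in mild NP-40 versus SDS extracts, three biological replicates.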

With “MAAGAGAGSAPRWLRALSEPLSAAQLRRLEEHRYSAAGVSLLEPPLQLYWTWLLQWIPLWMAPNSITLLGLAVNVVTTLVLISYCPTATEEAPYWTYLLCALGLFIYQSLDAIDGKQARRTNSCSPLGELFDHGCDSLSTVFMAVGASIAARLGTYPDWFFFCSFIGMFVFYCAHWQTYVSGMLRFGKVDVTEIQIALVIVFVLSAFGGATMWDYTIPILEIKLKILPVLGFLGGVIFSCSNYFHVILHGGVGKNGSTIAGTSVLSPGLHIGLIIILAIMIYKKSATDVFEKHPCLYILMFGCVFAKVSQKLVVAHMTKSELYLQDTVFLGPGLLFLDQYFNNFIDEYVVLWMAMVISSFDMVIYFSALCLQISRHLHLNIFKTACHQAPEQVQVLSSKSHQNNMD [CHPT1]”, in the data set on HeLa Kyoto [1], the “solubility change mitosis (log2)” value is -0.173. In addition, the “solubility in G1/S (log2)” value in the data set with HeLa Kyoto [2] was -0.277.
Regarding “MNSDQDVALKLAQERAEIVAKYDRGREGAEIEPWEDADYLVYKVTDRFGFLHEEELPDHNVAVERQKHLEIERTTKWLKMLKGWEKYKNTEKFHRRIYKGIPLQLRGEVWALLLEIPKMKEETRDLYSKLKHRARGCSPDIRQIDLDVNRTFRDHIMFRDRYGVKQQSLFHVLAAYSIYNTEVGYCQGMSQITALLLMYMNEEDAFWALVKLFSGPKHAMHGFFVQGFPKLLRFQEHHEKILNKFLSKLKQHLDSQEIYTSFYTMKWFFQCFLDRTPFTLNLRIWDIYIFEGERVLTAMSYTILKLHKKHLMKLSMEELVEFFQETLAKDFFFEDDFVIEQLQISMTELKRAKLDLPEPGKEDEYPKKPLGQLPPELQSWGVHHLSNGQRSVGRPSPLASGRRESGAPHRRHEHSPHPQSRTGTPERAQPPRRKSVEEESKKLKDEADFQRKLPSGPQDSSRQYNHAAANQNSNATSNIRKEFVPKWNKPSDVSATERTAKYTMEGKGRAAHPALAVTVPGPAEVRVSNVRPKMKALDAEDGKRGSTASQYDNVPGPELDSGASVEEALERAYSQSPRHALYPPSPRKHAEPSSSPSKVSNKFTFKVQPPSHARYPSQLDGEARGLAHPPSYSNPPVYHGNSPKHFPTANSSFASPQFSPGTQLNPSRRPHGSTLSVSASPEKSYSRPSPLVLPSSRIEVLPVDTGAGGYSGNSGSPKNGKLIIPPVDYLPDNRTWSEVSYTYRPETQGQSWTRDASRGNLPKYSAFQLAPFQDHGLPAVSVDSPVRYKASPAAEDASPSGYPYSGPPPPAYHYRNRDGLSIQESVLL [USP6NL]”, the “solubility change mitosis (log2)” value with HeLa Kyoto [1] was -0.321. Further, in the data set on HeLa Kyoto [2], the “solubility in G1/S (log2)” value is -0.388.
With “MASKRKSTTPCMVRTSQVVEQDVPEEVDRAKEKGIGTPQPDVAKDSWAAELENSSKENEVIEVKSMGESQSKKLQGGYECKYCPYSTQNLNEFTEHVDMQHPNVILNPLYVCAECNFTTKKYDSLSDHNSKFHPGEANFKLKLIKRNNQTVLEQSIETTNHVVSITTSGPGTGDSDSGISVSKTPIMKPGKPKADAKKVPKKPEEITPENHVEGTARLVTDTAEILSRLGGVELLQDTLGHVMPSVQLPPNINLVPKVPVPLNTTKYNSALDTNATMINSFNKFPYPTQAELSWLTAASKHPEEHIRIWFATQRLKHGISWSPEEVEEARKKMFNGTIQSVPPTITVLPAQLAPTKVTQPILQTALPCQILGQTSLVLTQVTSGSTTVSCSPITLAVAGVTNHGQKRPLVTPQAAPEPKRPHIAQVPEPPPKVANPPLTPASDRKKTKEQIAHLKASFLQSQFPDDAEVYRLIEVTGLARSEIKKWFSDHRYRCQRGIVHITSESLAKDQLAIAASRHGRTYHAYPDFAPQKFKEKTQGQVKILEDSFLKSSFPTQAELDRLRVETKLSRREIDSWFSERRKLRDSMEQAVLDSMGSGKKGQDVGAPNGALSRLDQLSGAQLTSSLPSPSPAIAKSQEQVHLLRSTFARTQWPTPQEYDQLAAKTGLVRTEIVRWFKENRCLLKTGTVKWMEQYQHQPMADDHGYDAVARKATKPMAESPKNGGDVVPQYYKDPKKLCEEDLEKLVTRVKVGSEPAKDCLPAKPSEATSDRSEGSSRDGQGSDENEESSVVDYVEVTVGEEDAISDRSDSWSQAAAEGVSELAESDSDCVPAEAGQA [ZHX2]”, in the data set on HeLa Kyoto [1], the “solubility change mitosis (log2)” value was -0.0666. Also, the “solubility in G1/S (log2)” value in the data set on HeLa Kyoto [2] is 0.134.
The matching figures for RIMS1: 0.0888 and 0.0741.
In the case of “MAGNKGRGRAAYTFNIEAVGFSKGEKLPDVVLKPPPLFPDTDYKPVPLKTGEGEEYMLALKQELRETMKRMPYFIETPEERQDIERYSKRYMKVYKEEWIPDWRRLPREMMPRNKCKKAGPKPKKAKDAGKGTPLTNTEDVLKKMEELEKRGDGEKSDEENEEKEGSKEKSKEGDDDDDDDAAEQEEYDEEEQEEENDYINSYFEDGDDFGADSDDNMDEATY [POLR3G]”, the “solubility change mitosis (log2)” value in the data set on HeLa Kyoto [1] was -0.0224. Besides, in the data set on HeLa Kyoto [2], the “solubility in G1/S (log2)” value stood at 0.214.
Regarding “MEFLLGNPFSTPVGQCLEKATDGSLQSEDWTLNMEICDIINETEEGPKDAIRALKKRLNGNRNYREVMLALTVLETCVKNCGHRFHILVANRDFIDSVLVKIISPKNNPPTIVQDKVLALIQAWADAFRSSPDLTGVVHIYEELKRKGVEFPMADLDALSPIHTPQRSVPEVDPAATMPRSQSQQRTSAGSYSSPPPAPYSAPQAPALSVTGPITANSEQIARLRSELDVVRGNTKVMSEMLTEMVPGQEDSSDLELLQELNRTCRAMQQRIVELISRVSNEEVTEELLHVNDDLNNVFLRYERFERYRSGRSVQNASNGVLNEVTEDNLIDLGPGSPAVVSPMVGNTAPPSSLSSQLAGLDLGTESVSGTLSSLQQCNPRDGFDMFAQTRGNSLAEQRKTVTYEDPQAVGGLASALDNRKQSSEGIPVAQPSVMDDIEVWLRTDLKGDDLEEGVTSEEFDKFLEERAKAAEMVPDLPSPPMEAPAPASNPSGRKKPERSEDALFAL [TOM1L2]”, in the data set on HeLa Kyoto [1], the “solubility change mitosis (log2)” value was -0.0085. For the same substance, in the data set with HeLa Kyoto [2], the “solubility in G1/S (log2)” value came to 0.292.
In the case of “MDEEPERTKRWEGGYERTWEILKEDESGSLKATIEDILFKAKRKRVFEHHGQVRLGMMRHLYVVVDGSRTMEDQDLKPNRLTCTLKLLEYFVEEYFDQNPISQIGIIVTKSKRAEKLTELSGNPRKHITSLKEAVDMTCHGEPSLYNSLSMAMQTLKHMPGHTSREVLIIFSSLTTCDPSNIYDLIKTLKAAKIRVSVIGLSAEVRVCTVLARETGGTYHVILDESHYKELLTHHLSPPPASSSSECSLIRMGFPQHTIASLSDQDAKPSFSMAHLDGNTEPGLTLGGYFCPQCRAKYCELPVECKICGLTLVSAPHLARSYHHLFPLDAFQEIPLEEYNGERFCYGCQGELKDQHVYVCAVCQNVFCVDCDVFVHDSLHCCPGCIHKIPAPSGV [GTF2H2C]”, the “solubility change mitosis (log2)” value with HeLa Kyoto [1] was determined as 0.181. Moreover, in the data set on HeLa Kyoto [2], the “solubility in G1/S (log2)” value is -0.398.
For “MENELPVPHTSSSACATSSTSGASSSSGCNNSSSGGSGRPTGPQISVYSGIPDRQTVQVIQQALHRQPSTAAQYLQQMYAAQQQHLMLQTAALQQQHLSSAQLQSLAAVQQASLVSNRQGSTSGSNVSAQAPAQSSSINLAASPAAAQLLNRAQSVNSAAASGIAQQAVLLGNTSSPALTASQAQMYLRAQMLIFTPTATVATVQPELGTGSPARPPTPAQVQNLTLRTQQTPAAAASGPTPTQPVLPSLALKPTPGGSQPLPTPAQSRNTAQASPAGAKPGIADSVMEPHKKGDGNSSVPGSMEGRAGLSRTVPAVAAHPLIAPAYAQLQPHQLLPQPSSKHLQPQFVIQQQPQPQQQQPPPQQSRPVLQAEPHPQLASVSPSVALQPSSEAHAMPLGPVTPALPLQCPTANLHKPGGSQQCHPPTPDTGPQNGHPEGVPHTPQRRFQHTSAVILQLQPASPPQQCVPDDWKEVAPGEKSVPETRSGPSPHQQAIVTAMPGGLPVPTSPNIQPSPAHETGQGIVHALTDLSSPGMTSGNGNSASSIAGTAPQNGENKPPQAIVKPQILTHVIEGFVIQEGAEPFPVGRSSLLVGNLKKKYAQGFLPEKLPQQDHTTTTDSEMEEPYLQESKEEGAPLKLKCELCGRVDFAYKFKRSKRFCSMACAKRYNVGCTKRVGLFHSDRSKLQKAGAATHNRRRASKASLPPLTKDTKKQPTGTVPLSVTAALQLTHSQEDSSRCSDNSSYEEPLSPISASSSTSRRRQGQRDLELPDMHMRDLVGMGHHFLPSEPTKWNVEDVYEFIRSLPGCQEIAEEFRAQEIDGQALLLLKEDHLMSAMNIKLGPALKIYARISMLKDS [PHC2]”, the “solubility change mitosis (log2)” value in the data set on HeLa Kyoto [1] turned out to be 0.555. Further, the “solubility in G1/S (log2)” value in the data set on HeLa Kyoto [2] is -0.368.
The matching figures for “MPAIAVLAAAAAAWCFLQVESRHLDALAGGAGPNHGNFLDNDQWLSTVSQYDRDKYWNRFRDDDYFRNWNPNKPFDQALDPSKDPCLKVKCSPHKVCVTQDYQTALCVSRKHLLPRQKKGNVAQKHWVGPSNLVKCKPCPVAQSAMVCGSDGHSYTSKCKLEFHACSTGKSLATLCDGPCPCLPEPEPPKHKAERSACTDKELRNLASRLKDWFGALHEDANRVIKPTSSNTAQGRFDTSILPICKDSLGWMFNKLDMNYDLLLDPSEINAIYLDKYEPCIKPLFNSCDSFKDGKLSNNEWCYCFQKPGGLPCQNEMNRIQKLSKGKSLLGAFIPRCNEEGYYKATQCHGSTGQCWCVDKYGNELAGSRKQGAVSCEEEQETSGDFGSGGSVVLLDDLEYERELGPKDKEGKLRVHTRAVTEDDEDEDDDKEDEVGYIW [SPOCK1]”: 0.345 and -0.59.
The matching figures for “MLEPQENGVIDLPDYEHVEDETFPPFPPPASPERQDGEGTEPDEESGNGAPVRVPPKRTVKRNIPKLDAQRLISERGLPALRHVFDKAKFKGKGHEAEDLKMLIRHMEHWAHRLFPKLQFEDFIDRVEYLGSKKEVQTCLKRIRLDLPILHEDFVSNNDEVAENNEHDVTSTELDPFLTNLSESEMFASELSRSLTEEQQQRIERNKQLALERRQAKLLSNSQTLGNDMLMNTPRAHTVEEVNTDEDQKEESNGLNEDILDNPCNDAIANTLNEEETLLDQSFKNVQQQLDATSRNITEAR [TIPIN]”: 0.273 and 0.321.
The matching figures for “MGATGDAEQPRGPSGAERGGLELGDAGAAGQLVLTNPWNIMIKHRQVQRRGRRSQMTTSFTDPAISMDLLRAVLQPSINEEIQTVFNKYMKFFQKAALNVRDNVGEEVDAEQLIQEACRSCLEQAKLLFSDGEKVIPRLTHELPGIKRGRQAEEECAHRGSPLPKKRKGRPPGHILSSDRAAAGMVWKPKSCEPIRREGPKWDPARLNESTTFVLGSRANKALGMGGTRGRIYIKHPHLFKYAADPQDKHWLAEQHHMRATGGKMAYLLIEEDIRDLAASDDYRGCLDLKLEELKSFVLPSWMVEKMRKYMETLRTENEHRAVEAPPQT [DNTTIP1]”: -0.0131 and 0.512.
